For one data set, the target named is T1, bmCENP-T HFD WT (Bombyx mori, UniProt A0A8R2HRP3 894-1016).
T1 sequence: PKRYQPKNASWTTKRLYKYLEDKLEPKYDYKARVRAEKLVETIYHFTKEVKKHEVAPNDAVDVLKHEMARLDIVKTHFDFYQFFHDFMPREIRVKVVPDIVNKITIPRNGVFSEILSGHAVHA
The experiment in a line: EMSA; 100 mM NaCl; maximum complex at 5x molar excess of protein; EMSA: 100 mM NaCl, 4 °C 30 min, 300 ng DNA, 8% glycerol, 5% native PAGE, GelRed stain; protein stock in 10 mM HEPES pH 7.5, 500 mM NaCl; binding buffer and pH not stated. As to conditions: protein: recombinant; tags: GST tag cleaved with HRV 3C (vector-derived N-terminal residues may remain); blunt. A general note: A gel shift assay detects complexes by their altered migration in electrophoresis.

Another data set concerns the target T2, bmCENP-T patch 2 mutant (Bombyx mori, UniProt A0A8R2HRP3 894-1016, R928S;R963S).
T2 sequence: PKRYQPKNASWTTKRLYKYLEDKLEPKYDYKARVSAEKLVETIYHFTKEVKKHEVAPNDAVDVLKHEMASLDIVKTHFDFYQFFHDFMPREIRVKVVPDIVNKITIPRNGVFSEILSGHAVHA
The experiment in a line: EMSA; 100 mM NaCl; no effect of mutation; EMSA: 100 mM NaCl, 4 °C 30 min, 300 ng DNA, 8% glycerol, 5% native PAGE, GelRed stain; protein stock in 10 mM HEPES pH 7.5, 500 mM NaCl; binding buffer and pH not stated. Particulars: protein: recombinant; tags: GST tag cleaved with HRV 3C; blunt.

A further data set deals with T3, bmCENP-T patch 1 mutant (Bombyx mori, UniProt A0A8R2HRP3 894-1016, K895A;R896A;K907A;R908S;K911A).
T3 sequence: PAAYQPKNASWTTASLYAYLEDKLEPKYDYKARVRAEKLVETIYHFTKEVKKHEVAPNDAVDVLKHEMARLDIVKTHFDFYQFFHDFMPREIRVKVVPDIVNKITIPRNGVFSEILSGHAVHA
The experiment in a line: EMSA; 100 mM NaCl; EMSA: 100 mM NaCl, 4 °C 30 min, 300 ng DNA, 8% glycerol, 5% native PAGE, GelRed stain; protein stock in 10 mM HEPES pH 7.5, 500 mM NaCl; binding buffer and pH not stated. Particulars: protein: recombinant; tags: GST tag cleaved with HRV 3C; blunt.

B1: 12 bp DNA (AA357/AA358) (dsDNA)
DNA 1: TAGACAGCTCTA
DNA 2: TAGAGCTGTCTA
Consider B1, for which the binding result in the data set with bmCENP-T HFD WT was “binds”; in the data set with bmCENP-T patch 2 mutant, “binds”; with bmCENP-T patch 1 mutant, “no binding”.

Values taken from paper PMC12678787, “Insects evolved a monomeric histone-fold domain in the CENP-T protein family”.
